# T1: purified recombinant HERV-K Env protein (human endogenous retrovirus-K (HERV-K))
# T1 chain: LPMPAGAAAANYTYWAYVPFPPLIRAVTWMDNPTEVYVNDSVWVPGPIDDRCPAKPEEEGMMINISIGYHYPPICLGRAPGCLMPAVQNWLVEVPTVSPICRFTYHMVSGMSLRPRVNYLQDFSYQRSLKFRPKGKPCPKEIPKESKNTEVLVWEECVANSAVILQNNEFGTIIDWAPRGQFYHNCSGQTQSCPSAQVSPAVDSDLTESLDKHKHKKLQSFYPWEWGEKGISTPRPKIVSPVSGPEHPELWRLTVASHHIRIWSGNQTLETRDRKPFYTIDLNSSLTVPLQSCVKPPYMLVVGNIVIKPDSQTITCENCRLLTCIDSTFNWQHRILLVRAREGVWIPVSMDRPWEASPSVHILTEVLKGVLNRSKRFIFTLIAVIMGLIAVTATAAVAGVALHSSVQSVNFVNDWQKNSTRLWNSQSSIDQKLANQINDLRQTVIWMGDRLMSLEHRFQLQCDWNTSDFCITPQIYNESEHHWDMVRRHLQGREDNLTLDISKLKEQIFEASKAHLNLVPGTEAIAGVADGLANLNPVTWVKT
# B1: HERV-K Env nanobody G10 (VHH)
# VHH: EVQLQASGGGFVQPGGSLRLSCAASGSTWYLDAMGWFRQAPGKEREFVSAISDLDDTARYYADSVKGRFTISRDNSKNTVYLQMNSLRAEDTATYYCAYLGATMAETYWGQGTQVTVSS
# notes: Recombinant protein made in E. coli; From Hybrigenics antibody phage display; also called nanobody clone G10; G10 nanobody
# Key:
# [1] = target: T1, purified recombinant HERV-K Env protein; test: protein thermal shift assay (DSF); HERV-K Env with 1-3 nM G10
# [2] = target: HERV-K Env-green fluorescent protein (GFP) fusion protein in transfected HEK293T cells (human endogenous retrovirus-K (HERV-K)); test: flow cytometry on fixed HEK293T cells transfected with Env-GFP; G10, anti-Myc antibody, Alexa Fluor 647 secondary antibody
binder,measurement,setting,value
B1,shift in Tm,[1],~2.5 ° C.
same,% of cells in the DP quadrant (GFP and Alexa Fluor 647),[2],39.4%

# Reference: patent US20250276015A1 (US Dept. of Health and Human Services, published 2025)
